Data: publication PMC4938175, “Conserved Sequence Preferences Contribute to Substrate Recognition by the Proteasome*^([image sbox.jpg])” (The Journal of Biological Chemistry, 2016)

Target: purified S. cerevisiae proteasome (S. cerevisiae)
Assay: competitive inhibition of proteasomal degradation of a fluorescent substrate; apparent Ki; DHFR-tail competitor varied, UbL-GFP-95 substrate, 40 nM purified yeast proteasome; loss of GFP fluorescence in 384-well plates; 30 °C (methods; the legend of Figure 7 says room temperature); 50 mM Tris, 5 mM MgCl2, 2.5% glycerol, 1 mM ATP, 4 mM DTT, 0.2 mg/ml BSA, 10 mM creatine phosphate, 0.1 mg/ml creatine kinase, pH 7.5; …
Conditions: both partners purified

Row | Binder | Ki
1 | DHFR-GRR (other) MISLIAALAVDRVIGMENAMPWNLPADLAWFKRNTLNKPVIMGRHTWESIGRPLPGRKNIILSSQPGTDDRVTWVKSVDEAIAACGDVPEIMVIGGGRVYEQFLPKAQKLYLTHIDAEVEGDTHFPDYEPDDWESVFSEFHDADAQNSHSYCFEILERRPRDSFGGGSGAGAGGGGMFGSGGGG | 130 ± 20 µM
2 | DHFR-eRR (other) MISLIAALAVDRVIGMENAMPWNLPADLAWFKRNTLNKPVIMGRHTWESIGRPLPGRKNIILSSQPGTDDRVTWVKSVDEAIAACGDVPEIMVIGGGRVYEQFLPKAQKLYLTHIDAEVEGDTHFPDYEPDDWESVFSEFHDADAQNSHSYCFEILERRPRGGGGAWLLPVSLVRRRTTLAPNTQTASPRALADS | 36 ± 5 µM
3 | DHFR-35 (other) MISLIAALAVDRVIGMENAMPWNLPADLAWFKRNTLNKPVIMGRHTWESIGRPLPGRKNIILSSQPGTDDRVTWVKSVDEAIAACGDVPEIMVIGGGRVYEQFLPKAQKLYLTHIDAEVEGDTHFPDYEPDDWESVFSEFHDADAQNSHSYCFEILERRPRLRYQPLLRISQNCEAAILRASQTRLNTIHHHHHH | 36 ± 6 µM
